# Laboratory results: the supplement of paper PMC9112550, “Optimization of the antimicrobial peptide Bac7 by deep mutational scanning” (BMC Biology, 2022)
# System: Escherichia coli TOP10
# Experiment: shrunken log2 fold change of peptide-encoding DNA abundance (4.5 h post-induction vs induction); higher = less antimicrobial activity (less host growth inhibition)
# Conditions: time post-induction: 4.5 h; library: site-saturation at positions 5, 18, 19, 20
# 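Also: peptides expressed intracellularly from a pBAD plasmid library in pooled LB shake-flask culture, induced with 0.3% L-arabinose, DNA abundance read by NGS, three biological replicates, DESeq2 with apeglm shrinkage.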
row,Sequence,shrunken log2 fold change
1,RRIRFRPPRLPRPRPRPQCVPRP,-0.276
2,RRIRKRPPRLPRPRPRPWWSPRP,-0.00415
3,RRIRDRPPRLPRPRPRPAQEPRP,0.185
4,RRIRPRPPRLPRPRPRPAVAPRP,0.416
5,RRIRTRPPRLPRPRPRPSFSPRP,-0.262
6,RRIRDRPPRLPRPRPRPRGHPRP,0.321
7,RRIRPRPPRLPRPRPRPEDEPRP,0.242
8,RRIRQRPPRLPRPRPRPNANPRP,0.00568
9,RRIRGRPPRLPRPRPRPARQPRP,0.654
10,RRIRIRPPRLPRPRPRPRDPPRP,1.94
11,RRIRARPPRLPRPRPRPTGMPRP,0.52
12,RRIRQRPPRLPRPRPRPYWAPRP,-0.355
13,RRIRWRPPRLPRPRPRPQPAPRP,0.812
14,RRIRQRPPRLPRPRPRPWWKPRP,-0.00542
15,RRIRRRPPRLPRPRPRPMMVPRP,-0.00292
16,RRIRARPPRLPRPRPRPKVHPRP,0.491
17,RRIRCRPPRLPRPRPRPLKCPRP,-0.228
18,RRIRSRPPRLPRPRPRPQMMPRP,-0.143
19,RRIRGRPPRLPRPRPRPPKIPRP,0.835
20,RRIRKRPPRLPRPRPRPHNFPRP,-0.0511
21,RRIRMRPPRLPRPRPRPLVHPRP,0.035
22,RRIRFRPPRLPRPRPRPYQMPRP,-0.0843

row,Sequence,shrunken log2 fold change
1,RRIRRRPPRLPRPRPRPVLGPRP,0.528
2,RRIRVRPPRLPRPRPRPAAHPRP,0.0619
3,RRIRERPPRLPRPRPRPCSRPRP,-0.00322
4,RRIRCRPPRLPRPRPRPNPFPRP,-0.024
5,RRIRWRPPRLPRPRPRPCDAPRP,0.138
6,RRIRFRPPRLPRPRPRPRTFPRP,-0.179
7,RRIRMRPPRLPRPRPRPIHIPRP,-0.221
8,RRIRRRPPRLPRPRPRPKNEPRP,0.294
9,RRIRGRPPRLPRPRPRPEVRPRP,0.919
10,RRIRSRPPRLPRPRPRPVSVPRP,0.0162
11,RRIRHRPPRLPRPRPRPNQCPRP,-0.201
12,RRIRARPPRLPRPRPRPHMMPRP,-0.12
13,RRIRCRPPRLPRPRPRPCREPRP,-0.291
14,RRIRLRPPRLPRPRPRPGHGPRP,-0.00133
15,RRIRPRPPRLPRPRPRPVCGPRP,0.208
16,RRIRMRPPRLPRPRPRPIPNPRP,0.983
17,RRIRWRPPRLPRPRPRPETTPRP,0.234
18,RRIRGRPPRLPRPRPRPAEPPRP,0.176
19,RRIRLRPPRLPRPRPRPDQKPRP,0.0416
20,RRIRCRPPRLPRPRPRPNIMPRP,-0.896
21,RRIRGRPPRLPRPRPRPAPTPRP,1.2
22,RRIRMRPPRLPRPRPRPRTIPRP,0.229

row,Sequence,shrunken log2 fold change
1,RRIRFRPPRLPRPRPRPFPIPRP,-0.184
2,RRIRMRPPRLPRPRPRPQNLPRP,0.12
3,RRIRYRPPRLPRPRPRPWVIPRP,-0.0317
4,RRIRPRPPRLPRPRPRPFYGPRP,-0.142
5,RRIRHRPPRLPRPRPRPVPHPRP,-0.031
6,RRIRVRPPRLPRPRPRPNQWPRP,-0.264
7,RRIRGRPPRLPRPRPRPPKYPRP,0.0508
8,RRIRERPPRLPRPRPRPLACPRP,-0.269
9,RRIRSRPPRLPRPRPRPCTQPRP,-0.294
10,RRIRGRPPRLPRPRPRPHPGPRP,0.421
11,RRIRARPPRLPRPRPRPDYQPRP,-0.0168
12,RRIRNRPPRLPRPRPRPEIYPRP,-0.00989
13,RRIRLRPPRLPRPRPRPWRWPRP,0.0385
14,RRIRFRPPRLPRPRPRPVFSPRP,-0.293
15,RRIRGRPPRLPRPRPRPHVVPRP,0.1
16,RRIRPRPPRLPRPRPRPWLVPRP,0.159
17,RRIRFRPPRLPRPRPRPRNWPRP,0.19
18,RRIRQRPPRLPRPRPRPVRGPRP,1.97
19,RRIRNRPPRLPRPRPRPQLFPRP,0.177
20,RRIRCRPPRLPRPRPRPAEKPRP,-0.0214
21,RRIRFRPPRLPRPRPRPWMHPRP,-0.0282
22,RRIRHRPPRLPRPRPRPTLGPRP,-0.0595

row,Sequence,shrunken log2 fold change
1,RRIRWRPPRLPRPRPRPESKPRP,0.268
2,RRIRGRPPRLPRPRPRPQYVPRP,-0.0061
3,RRIRKRPPRLPRPRPRPTAHPRP,0.513
4,RRIRGRPPRLPRPRPRPTMRPRP,1.44
5,RRIRCRPPRLPRPRPRPKQPPRP,0.595
6,RRIRWRPPRLPRPRPRPLTTPRP,0.235
7,RRIRTRPPRLPRPRPRPQNRPRP,-0.199
8,RRIRRRPPRLPRPRPRPPLDPRP,1.24
9,RRIRIRPPRLPRPRPRPGVFPRP,0.292
10,RRIRNRPPRLPRPRPRPLYEPRP,-0.675
11,RRIRRRPPRLPRPRPRPLGPPRP,0.304
12,RRIRCRPPRLPRPRPRPSQAPRP,-0.0139
13,RRIRVRPPRLPRPRPRPANNPRP,-0.272
14,RRIRCRPPRLPRPRPRPLCYPRP,-0.439
15,RRIRGRPPRLPRPRPRPRCIPRP,0.273
16,RRIRVRPPRLPRPRPRPTFYPRP,-0.145
17,RRIRSRPPRLPRPRPRPKNGPRP,-0.105
18,RRIRGRPPRLPRPRPRPVHIPRP,-0.165
19,RRIRERPPRLPRPRPRPGGDPRP,0.0586
20,RRIRTRPPRLPRPRPRPSDKPRP,-0.0752
21,RRIRYRPPRLPRPRPRPILSPRP,-0.107
22,RRIRYRPPRLPRPRPRPYGWPRP,-0.187

row,Sequence,shrunken log2 fold change
1,RRIRRRPPRLPRPRPRPGWAPRP,0.573
2,RRIRQRPPRLPRPRPRPTWAPRP,0.586
3,RRIRTRPPRLPRPRPRPVRWPRP,0.774
4,RRIRLRPPRLPRPRPRPYSIPRP,0.0705
5,RRIRQRPPRLPRPRPRPINAPRP,-0.116
6,RRIRKRPPRLPRPRPRPAYAPRP,-0.085
7,RRIRLRPPRLPRPRPRPAWYPRP,0.0232
8,RRIRTRPPRLPRPRPRPTHYPRP,0.282
9,RRIRSRPPRLPRPRPRPIKSPRP,0.041
10,RRIRGRPPRLPRPRPRPYSSPRP,-0.223
11,RRIRQRPPRLPRPRPRPTDVPRP,-0.194
12,RRIRPRPPRLPRPRPRPMSEPRP,-0.327
13,RRIRERPPRLPRPRPRPKCCPRP,-0.191
14,RRIRNRPPRLPRPRPRPNKHPRP,-0.528
15,RRIRGRPPRLPRPRPRPLVVPRP,0.39
16,RRIRPRPPRLPRPRPRPVLDPRP,-0.304
17,RRIRLRPPRLPRPRPRPYFWPRP,-0.0237
18,RRIRGRPPRLPRPRPRPNMPPRP,-0.317
19,RRIRLRPPRLPRPRPRPEWSPRP,-0.178
20,RRIRTRPPRLPRPRPRPPYVPRP,-0.212
21,RRIRERPPRLPRPRPRPFIAPRP,-0.2
